Measurements taken from a protein production outcome set (Wang et al. 2014).

Assay: label from the status in PepcDB records

Sequence	protein production
MNVELFKKFSEKVEEIIEAGRILHSRGWVPATSGNISAKVSEEYIAITASGKHKGKLTPEDILLIDYEGRPVGGGKPSAETLLHTTVYKLFPEVNAVVHTHSPNATVISIVEKKDFVELEDYELLKAFPDIHTHEVKIKIPIFPNEQNIPLLAKEVENYFKTSEDKYGFLIRGHGLYTWGRSMEEALIHTEALEFIFECELKLLSFHS	not failed
SVICCAAVNCSNRQGKGEKRAVSFHRFPLKDSKRLIQWLKAVQRDNWTPTKYSFLCSEHFTKDSFSKRLEDQHRLLKPTAVPSIFHLTEKKRGAGGHGRTRRKDASKATGGVRGHSSAATGRGAAGWSPSSSGNPMAKPESRRLKQAALQGEATPRAAQEAASQEQAQQALERTPGDGLATMVAGSQGKAEASATDAGDESATSSIEGGVTDKSGISMDDFTPPGSGACKFIGSLHSYSFSSKHTRERPSVPREPIDRKRLKKDVEPSCSGSSLGPDKGLAQSPPSSSLTATPQKPSQSPSAPPADVTPKPATEAVQSEHSDASPMSINEVILSASGACKLIDSLHSYCFSSRQNKSQVCCLREQVEKKNGELKSLRQRVSRSDSQVRKLQEKLDELRRVSVPYPSSLLSPSREPPKMNPVVEPLSWMLGTWLSDPPGAGTYPTLQPFQYLEEVHISHVGQPMLNFSFNSFHPDTRKPMHRECGFIRLKPDTNKVAFVSAQNTGVVEVEEGEVNGQELCIASHSIARISFAKEPHVEQITRKFRLNSEGKLEQTVSMATTTQPMTQHLHVTYKKVTP	not failed
MSASRILTAFGLTGALVTAGVAQAGIVYIPEGSADSVLMVESETGQPVGRISGVEAVHGLAGAPGTPYLVAGSYSEIDPESAAQTARPEGVSQADHNAHHAKPAKAAMPTDKGLSLVSVIDAGTGEVVRRIEVPGAVHHTAVSPDGRWAMATHPGGDGVSLIDLSTLEYAGFIATGPMPNYVSFSPDNSRAYVSNAGNGTLSELDLDRRILSRNLLAGEGPEHFALSRDGATVFVADAEAGRVLRLDIASGAETASYGFGAELHGLDLSEREDTLFVAVKGADQVAAVDLASGAVRLQELAPAPYHLTVADGGETLFVSSREASMVWAVDQVSLRVTAEIGIEGEGHQMVVLP	failed
MHEIAPLSPAAAALADFQPDRGPAALNGAAVFCGFAPRPLDDGFTWADFGCGLGITASILAAANPQGRFFAIDADGQALAAGRALAKAAFLDNLTFLQADYTKPHDLDLPPLDFAVLGNVLCWLDGQERQALLSRLGTLLKPGGIVLATYDALPGAAALVPLRDLLFSVTAGQAANPVARARAAIDWLGAMRAAGIDFFRDNPALGPRLDALIERGPQALAGRFFGGTLRPLHFAQVNAEMAAQGLTFAGRAEAFLNLIDLAVPAALRPRLRAATSRAEVEATRDFIRNEDHRRDLYIKGAAPSDGAALTAFDDGRILGPAAAPGQANPEVSFGAVSLSFRGALFESLLAALDLGPRPVGELCASAALEGVPPGLIRDGLRLLTAGGLARPYARAADVAPAAPPVWPLRLPHPLNRALALTLGLGGPTVALASKVLGDGVVMDNRDALLLVALCDAGPEGAVERALAILADQAIPCGPATTQALTDRLSPLITDILPWLRVLGVVEG	failed
ASLKDFELSKMLEKVAKESSVGTPRAINEDILDQGYTVEGNQLINHLSVRASHAERMRSNPDSVRSQLGDSVCSNTGYRQLLARGAILTYSFTEYKTNQPVATERFDAGSCRIQGKK	not failed
PLADTRFLQRRRALSAQLAAKRIDAMLVTHLTHIRYLSGFTGSNAALIINKDLSARISTDGRYITQIAEQVPDIESLMARNCAPALLSDINGPKRVGFEADYLSVSQCEELRKSAGSDVELIPVTGAIEKLR	not failed
MFLDMLSLIRGQKIKLNDALQGQSSFYIQIHYQAAFDLDIASFGLDSQYRLSDERYMTFYNQPETPCQAVRLIENQNKCSRFLVDLAKLPATIQHLVLTAAIDGQNIMSQLQQVTVQILNLQLQPIAELKLDASIFDQERATMLIEIYRKEGIWRLAAIGQGFNAGLAALIQHFGGEVAEEPTAQQTTPVAPQSNIDLKKKLSLQKAEKTGNASIIDLTKKSLVQLEKKKLLGVTARVALVLDASGSMDGQYRRGDVQKVVNRLMPLAIHFDDDGSFECWAFAAETTQLDDVTLSNVNDFINSTQRGWKNWQVGARYNEEIPAIEAVINYFQKFQDQIPTYVLFISDGGVGSRRQMQKILSQAAKLPIFWQFVGIGGRNYGALEKLDEMSGRIVDNCNFFSLDRIDGVSDERLYELLLQEFPDWLIAARQHQIVRN	failed
MQEQVSNVRARIYKPAKSTMQSGHSKLKAWKLEFEPSCTQYTEPLMNWTGSHDTKQQVCLSFTTRELAIAYAVAHKIDYTVLQDNPRTIVPKSYADNFTKPRDM	not failed
MGSFHRRTFSYDKLPNEPIRLSVLKLDGSSFDVYVLTSATVGDLKVAIETAFSHVPKKGPSKISWSHVWGHFCLCFGGQKLITDTDCIGNYGMKDGDEVRFKNHVSGNAVLSKGYSRKSKQKNLERVLPKDGDEVLNRIEEIDDSWDDLERGGLVMYKDDDMETSSNESNRSCLSTVHGCCFAFGLKELLGFGNDRAYYSLRDTWRDD	failed
MMKNMILPIAFTALIASMTACSDETDPILTQKNWDGTATYFQSSDEHGFSMYYKPQVGFVGDPMPFYDPVAKDFKVMYLQDYRPNPEATYHPIFGVATKDGATYESLGELISCGGRDEQDAAIGTGGTIYNPADKLYYTFYTGNKFKPSSDQNAQVVMVATSPDFKTWTKNRTFYLKGDTYGYDKNDFRDPFLFQTEDGVYHMLIATRKNGKGHIAEFTSADLKEWESAGTFMTMMWDRFYECPDVFKMGDWWYLIYSEQASFMRKVQYFKGRTLEDLKATTANDAGIWPDNREGMLDSRAFYAGKTASDGTNRYIWGWCPTRAGNDNGNVGDVEPEWAGNLVAQRLIQHEDGTLTLGVPDAIDRKYTSAQEVKVMAKDGNMIESGKTYTLGEGASVIFNRLKVHNKISFTVKTASNTDRFGISFVRGTDSASWYSIHVNADEGKANFEKDGDDAKYLFDNKFNIPADNEYRVTIYSDQSVCVTYINDQLSFTNRIYQMQKNPWSLCCYKGEITVSDVQVSTY	failed
AAIYHLDVSGQATIRFRPPAFLKTLVSEHAGTTRLNTLSMIHHDDRHMLSNAYSKLREAKHSLTLVYRIVTPEGKLHWIEDHMRSSFSDD	failed
MEKPRSIEETPSSEPMEEEEDDDLELFGGYDSFRSYNSSVGSESSSYLEESSEAENEDREAGELPTSPLHLLSPGTPRSLDGSGSEPAVCEMCGIVGTREAFFSKTKRFCSVSCSRSYSSNSKKASILARLQGKPPTKKAKVLHKAAWSAKIGAFLHSQGTGQLADGTPTGQDALVLGFDWGKFLKDHSYKAAPVSCFKHVPLYDQWEDVMKGMKVEVLNSDAVLPSRVYWIASVIQTAGYRVLLRYEGFENDASHDFWCNLGTVDVHPIGWCAINSKILVPPRTIHAKFTDWKGYLMKRLVGSRTLPVDFHIKMVESMKYPFRQGMRLEVVDKSQVSRTRMAVVDTVIGGRLRLLYEDGDSDDDFWCHMWSPLIHPVGWSRRVGHGIKMSERRSDMAHHPTFRKIYCDAVPYLFKKVRAVYTEGGWFEEGMKLEAIDPLNLGNICVATVCKVLLDGYLMICVDGGPSTDGLDWFCYHASSHAIFPATFCQKNDIELTPPKGYEAQTFNWENYLEKTKSKAAPSRLFNMDCPNHGFKVGMKLEAVDLMEPRLICVATVKRVVHRLLSIHFDGWDSEYDQWVDCESPDIYPVGWCELTGYQLQPPVAAEPATPLKAKEATKKKKKQFGKKRKRIPPTKTRPLRQGSKKPLLEDDPQGARKISSEPVPGEIIAVRVKEEHLDVASPDKASSPELPVSVENIKQETDD	failed
MKSIRRGDGLNVVPFIDIMLVLLAIVLSISTFIAQGKIKVSLPNAKNAEKSQPNDQKVVVISVDEHDNIFVDDKPMNLEALSAVVKQTDPKTLIDLKSDKSSRFETFISIMDILKEHNHENFSISTQAQ	failed
MAFSTDDTLWREFLQVWPLERLREMTLAEYTTAGDKDCFVYWLEFRLVDYGSIAGGSAFKFAIFSRKETGAREGDTSLAYDDRYGWYRRFGTSPEEAFQTIRGHVVAVAEAARDGRLDEIDNSPLGAAYRWKIAFHYQPLRNPSTPCVYVRKPLLHFLGLSAADTTTPQSELYQALARLRQADESIFVFSERLWKDWVADTPFVVKLSEGAIKHGYLPVNLISAPFPETMYGGKTPNEAADVAHFRTDTGLEFDTDLRVSSPGSARLRHRLGGYFEDIGAAAGDLITLTQDGDGTYLLSSKLAVHAIGPTASAATITARASVKEAAAVRPPLNQILFGPPGTGKTYEAIEKALEILDPSFLLQLGDDESNERRRALKRRYDELAKEGLVQFVTFHQSFSYENFVEGLSASSDPDTKQVRYEVEDGVFKELCESARTRLVRRSDDAPLELSGRRIWKLSLGDSITEGHIFEECMEKGLALMGFGNNADFSQCQSREDIQKMFAASGEPLSLGAYPITAIKTFVCQMKLGDLIVVSEGNLKFRAIGEITGDYQLLPRDSDTYSQARPVRWLRGYKPALPYGALMENRFSQMTVYELRAGSIDHDKFRELLKSECIATGADRPHVLIIDEINRGNVSRIFGELITLIEPSKRSGAAEALEVLLPYSKDPFSVPDNVYLIGTMNTADRSLAGLDIALRRRFDFVEMAPRPDKLTGVKVAEIDISAVLETMNRRIEVLLDREHRLGHAYFMSLENSNDLSRLSNIFRQQIIPLLQEYFFEDWQRIAWILNDHRKDERFRFIVPAPYSVDSLFGDTGQVAQDSKAWRMNEEAFHKPQSYLGIVGDGKV	failed
SSHQPLSCLTEKEDSPSESTGNGPPHLAHPNLDTFTPEELLQQMKELLTENHQLKEAMKLNNQAMKGRFEELSAWTEKQKEERQFFEIQSKEAKERLMALSHENEKLKEELGKLKGKSERSSEDPTDDSRLPRAEAEQEKDQLRTQVVRLQAEKADLLGIVSELQLKLNSSGSSEDSFVEIRMAEGEAEGSVKEIKHSPGPTRTVSTGTSRSADGAKNYFEHEELTVSQLLLCLREGNQKVERLEVALKEAKERVSDFEKKTSNRSEIETQTEGSTEKENDEEKGPETVGSEVEALNLQVTSLFKELQEAHTKLSEAELMKKRLQEKCQALERKNSAIPSELNEKQELVYTNKKLELQVESMLSEIKMEQAKTEDEKSKLTVLQMTHNKLLQEHNNALKTIEELTRKESEKVDRAVLKELSEKLELAEKALASKQLQMDEMKQTIAKQEEDLETMTILRAQMEVYCSDFHAERAAREKIHEEKEQLALQLAVLLKENDAFEDGGRQSLMEMQSRHGARTSDSDQQAYLVQRGAEDRDWRQQRNIPIHSCPKCGEVLPDIDTLQIHVMDCII	failed
KGESYKGKVAVASVVLNRTEKKGFPDTIRGVIYQKNAFEPVANGSINQKPDKESIEAAEEALSSKNRETDAIFFYNPKTASDNWIRSRKIVEKIGRHVFAV	not failed
MSLVSVIILASGNSQRMGQNKLFLKYQGKTFLEHTLTLVNQLDVLERILVVSPENQPAFPLPKNIQLILNHQWQEGQSSSIRLGTEQARGAGYLYLPSDQPLLTPKMLQLVLDKCQRNKIVVPLQKDGCPSSPVLFGNQFRQELLTLTGEKGGRMIYERFPEAVQMLRIATPGRLKDIDTPEEYQKLIQETNSLEHHHHHH	failed
MRIDIVTIFPACLDPLRQSLPGKAIESGLVDLNVHDLRRWTHDVHHSVDDAPYGGGPGMVMKAPVWGEALDEICSSETLLIVPTPAGVLFTQATAQRWTTESHLVFACGRYEGIDQRVVQDAARRMRVEEVSIGDYVLPGGESAAVVMVEAVLRLLAGVLGNPASHQDDSHSTGLDGLLEGPSYTRPASWRGLDVPEVLLSGDHARIAAWRREVSLQRTRERRPDLSHPD	failed
MRLQELVLVKISLVFLWLIGFVFLQRSEENGFEEPNNGEELSWDDLEREAASNISSKRSHAERSHQHESFTKGDELSGDLYELWRQEQNSIAARLDKELKSRWELDELIEEQLSRYQSHYDNSMVSTFLKDVSNLVLPTWIPPHELAAVAWLGDWRPTSILDLVRILAAQNPSFSLSESSLRVLSQLLREIRIEEAVIDEEYAEIQATGVLYLPFSPLCNTRLHEEALRSVQELFGNIHKVISKAQRLRYKVLELVMKKLLNQTDTAEFVVAFAGIQDAIHQFGEQKKLRKIYPAVPSPLKGSGSSS	not failed
